In publication PMC2756588:

T1: Pin3, Q06449
T1 sequence (Q06449 53-122, looked up): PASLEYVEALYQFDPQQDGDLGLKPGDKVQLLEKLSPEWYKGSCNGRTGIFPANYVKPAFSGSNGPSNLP

T2: Cyk3, Q07533
T2 sequence (Q07533 1-83, looked up): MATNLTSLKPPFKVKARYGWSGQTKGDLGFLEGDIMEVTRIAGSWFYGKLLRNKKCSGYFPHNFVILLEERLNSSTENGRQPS

T3: Nbp2, Q12163
T3 sequence (Q12163 103-180, looked up): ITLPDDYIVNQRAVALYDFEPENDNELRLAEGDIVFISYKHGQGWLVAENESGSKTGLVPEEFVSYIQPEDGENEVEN

T4: Bzz1-2, P38822
T4 sequence (P38822 568-633, looked up): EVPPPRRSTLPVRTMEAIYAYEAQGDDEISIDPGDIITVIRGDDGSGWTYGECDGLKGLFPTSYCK

T5: Fus1, P11710
T5 sequence (P11710 432-512, looked up): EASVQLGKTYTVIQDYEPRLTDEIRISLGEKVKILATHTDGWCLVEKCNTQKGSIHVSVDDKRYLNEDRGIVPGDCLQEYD

T6: Bbc1, P47068
T6 sequence (P47068 1-78, looked up): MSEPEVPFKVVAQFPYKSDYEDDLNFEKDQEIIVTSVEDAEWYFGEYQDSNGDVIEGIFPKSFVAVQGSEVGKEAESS

T7: Lsb3, P43603
T7 sequence (P43603 385-451, looked up): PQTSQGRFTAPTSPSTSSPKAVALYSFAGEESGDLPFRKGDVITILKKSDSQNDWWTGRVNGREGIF

T8: Bud14, P27637
T8 sequence (P27637 247-328, looked up): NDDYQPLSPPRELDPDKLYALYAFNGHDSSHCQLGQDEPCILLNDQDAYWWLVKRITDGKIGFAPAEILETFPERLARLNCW

T9: Boi1, P38041
T9 sequence (P38041 1-86, looked up): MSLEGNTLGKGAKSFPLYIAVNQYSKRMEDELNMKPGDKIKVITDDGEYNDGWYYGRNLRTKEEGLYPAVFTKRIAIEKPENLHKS

T10: Hse1, P38753
T10 sequence (P38753 208-285, looked up): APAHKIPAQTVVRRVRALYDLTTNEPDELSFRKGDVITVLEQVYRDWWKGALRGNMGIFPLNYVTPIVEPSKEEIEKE

T11: Hof1, Q05080
T11 sequence (Q05080 590-669, looked up): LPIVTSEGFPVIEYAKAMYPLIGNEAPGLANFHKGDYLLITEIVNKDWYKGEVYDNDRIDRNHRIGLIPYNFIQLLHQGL

T12: Abp1, P15891
T12 sequence (P15891 535-592, looked up): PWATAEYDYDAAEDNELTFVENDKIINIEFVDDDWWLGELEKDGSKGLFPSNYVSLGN

T13: Myo5, Q04439
T13 sequence (Q04439 1072-1160, looked up): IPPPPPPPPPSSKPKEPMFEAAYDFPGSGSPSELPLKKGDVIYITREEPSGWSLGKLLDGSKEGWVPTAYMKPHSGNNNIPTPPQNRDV

T14: Cdc25, P04821
T14 sequence (P04821 50-136, looked up): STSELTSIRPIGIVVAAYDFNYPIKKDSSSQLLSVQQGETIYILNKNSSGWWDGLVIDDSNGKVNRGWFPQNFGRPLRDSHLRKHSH

T15: Lsb4, P32793
T15 sequence (P32793 402-468, looked up): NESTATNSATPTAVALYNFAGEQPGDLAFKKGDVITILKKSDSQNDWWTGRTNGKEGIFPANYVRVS

T16: Bzz1-1, P38822
T16 sequence (P38822 478-572, looked up): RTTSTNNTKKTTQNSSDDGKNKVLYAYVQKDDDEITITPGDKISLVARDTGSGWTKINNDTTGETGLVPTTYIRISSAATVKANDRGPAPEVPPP

T17: Sla1-2, P32790
T17 sequence (P32790 60-140, looked up): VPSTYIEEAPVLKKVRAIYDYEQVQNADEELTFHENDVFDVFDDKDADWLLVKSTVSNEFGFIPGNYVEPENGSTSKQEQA

T18: Boi2, P39969
T18 sequence (P39969 32-116, looked up): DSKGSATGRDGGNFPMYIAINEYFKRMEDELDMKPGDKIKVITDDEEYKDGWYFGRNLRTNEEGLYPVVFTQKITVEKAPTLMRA

T19: Pex13, P80667
T19 sequence (P80667 295-386, looked up): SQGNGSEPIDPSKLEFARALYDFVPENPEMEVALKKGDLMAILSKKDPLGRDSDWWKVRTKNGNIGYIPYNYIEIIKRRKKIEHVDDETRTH

T20: Lsb1, P53281
T20 sequence (P53281 45-122, looked up): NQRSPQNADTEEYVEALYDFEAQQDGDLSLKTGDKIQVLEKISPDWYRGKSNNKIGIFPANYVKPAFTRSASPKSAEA

T21: Sla1-3, P32790
T21 sequence (P32790 344-424, looked up): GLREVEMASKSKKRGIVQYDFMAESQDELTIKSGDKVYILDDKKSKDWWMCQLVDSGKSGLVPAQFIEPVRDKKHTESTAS


target: T1, Pin3, Q06449; experiment: SPOT array; conditions: median of control spots 2171

Binder | SPOT intensity
ALKQKKIPPPFKPHL | 0
DKSRPPRPPPKPLHL | 0
RPPRPPPKPLHLRTE | 5

target: Bem1-2, P29366; experiment: SPOT array; conditions: median of control spots 4347
Sequence (P29366 139-227): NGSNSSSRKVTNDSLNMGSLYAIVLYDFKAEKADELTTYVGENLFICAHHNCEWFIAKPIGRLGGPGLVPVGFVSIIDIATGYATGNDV

Binder | SPOT intensity
ALKQKKIPPPFKPHL | 0
DKSRPPRPPPKPLHL | 57
RPPRPPPKPLHLRTE | 458

target: T2, Cyk3, Q07533; experiment: SPOT array; conditions: median of control spots 1451

Binder | SPOT intensity
ALKQKKIPPPFKPHL | 0
DKSRPPRPPPKPLHL | 0
RPPRPPPKPLHLRTE | 0

target: T3, Nbp2, Q12163; experiment: SPOT array; conditions: median of control spots 357

Binder | SPOT intensity
ALKQKKIPPPFKPHL | 0
DKSRPPRPPPKPLHL | 0
RPPRPPPKPLHLRTE | 86

target: Sho1, P40073; experiment: SPOT array; conditions: median of control spots 1148
Sequence (P40073 287-367): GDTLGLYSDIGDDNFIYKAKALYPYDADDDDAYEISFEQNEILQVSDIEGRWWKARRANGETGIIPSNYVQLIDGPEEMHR

Binder | SPOT intensity
ALKQKKIPPPFKPHL | 0
DKSRPPRPPPKPLHL | 155
RPPRPPPKPLHLRTE | 780

target: T4, Bzz1-2, P38822; experiment: SPOT array; conditions: median of control spots 4538

Binder | SPOT intensity
ALKQKKIPPPFKPHL | 0
DKSRPPRPPPKPLHL | 1
RPPRPPPKPLHLRTE | 38

target: T5, Fus1, P11710; experiment: SPOT array; conditions: median of control spots 1200

Binder | SPOT intensity
ALKQKKIPPPFKPHL | 0
DKSRPPRPPPKPLHL | 0
RPPRPPPKPLHLRTE | 0

target: T6, Bbc1, P47068; experiment: SPOT array; conditions: median of control spots 796

Binder | SPOT intensity
ALKQKKIPPPFKPHL | 0
DKSRPPRPPPKPLHL | 5
RPPRPPPKPLHLRTE | 15

target: T7, Lsb3, P43603; experiment: SPOT array; conditions: median of control spots 406

Binder | SPOT intensity
ALKQKKIPPPFKPHL | 0
DKSRPPRPPPKPLHL | 216
RPPRPPPKPLHLRTE | 306

target: T8, Bud14, P27637; experiment: SPOT array; conditions: median of control spots 956

Binder | SPOT intensity
ALKQKKIPPPFKPHL | 0
DKSRPPRPPPKPLHL | 1
RPPRPPPKPLHLRTE | 0

target: T9, Boi1, P38041; experiment: SPOT array; conditions: median of control spots 1162

Binder | SPOT intensity
ALKQKKIPPPFKPHL | 0
DKSRPPRPPPKPLHL | 0
RPPRPPPKPLHLRTE | 0

target: Bem1-1, P29366; experiment: SPOT array; conditions: median of control spots 4282
Sequence (P29366 55-141): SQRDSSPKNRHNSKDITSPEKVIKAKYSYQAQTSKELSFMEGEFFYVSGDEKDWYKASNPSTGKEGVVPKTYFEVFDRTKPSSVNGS

Binder | SPOT intensity
ALKQKKIPPPFKPHL | 0
DKSRPPRPPPKPLHL | 0
RPPRPPPKPLHLRTE | 4

target: T10, Hse1, P38753; experiment: SPOT array; conditions: median of control spots 1727

Binder | SPOT intensity
ALKQKKIPPPFKPHL | 0
DKSRPPRPPPKPLHL | 36
RPPRPPPKPLHLRTE | 539

target: T11, Hof1, Q05080; experiment: SPOT array; conditions: median of control spots 4086

Binder | SPOT intensity
ALKQKKIPPPFKPHL | 0
DKSRPPRPPPKPLHL | 0
RPPRPPPKPLHLRTE | 3

target: T12, Abp1, P15891; experiment: SPOT array; conditions: median of control spots 935

Binder | SPOT intensity
ALKQKKIPPPFKPHL | 42
DKSRPPRPPPKPLHL | 675
RPPRPPPKPLHLRTE | 692

target: T13, Myo5, Q04439; experiment: SPOT array; conditions: median of control spots 471

Binder | SPOT intensity
ALKQKKIPPPFKPHL | 0
DKSRPPRPPPKPLHL | 44
RPPRPPPKPLHLRTE | 33

target: Myo3, P36006; experiment: SPOT array; conditions: median of control spots 468

Binder | SPOT intensity
ALKQKKIPPPFKPHL | 0
DKSRPPRPPPKPLHL | 160
RPPRPPPKPLHLRTE | 121

target: GST; experiment: SPOT array; conditions: median of control spots 978

Binder | SPOT intensity
ALKQKKIPPPFKPHL | 0
DKSRPPRPPPKPLHL | 0
RPPRPPPKPLHLRTE | 0

target: T14, Cdc25, P04821; experiment: SPOT array; conditions: median of control spots 969

Binder | SPOT intensity
ALKQKKIPPPFKPHL | 0
DKSRPPRPPPKPLHL | 0
RPPRPPPKPLHLRTE | 0

target: T15, Lsb4, P32793; experiment: SPOT array; conditions: median of control spots 397

Binder | SPOT intensity
ALKQKKIPPPFKPHL | 0
DKSRPPRPPPKPLHL | 177
RPPRPPPKPLHLRTE | 201

target: T16, Bzz1-1, P38822; experiment: SPOT array; conditions: median of control spots 4446

Binder | SPOT intensity
ALKQKKIPPPFKPHL | 0
DKSRPPRPPPKPLHL | 36
RPPRPPPKPLHLRTE | 30

target: T17, Sla1-2, P32790; experiment: SPOT array; conditions: median of control spots 712

Binder | SPOT intensity
ALKQKKIPPPFKPHL | 0
DKSRPPRPPPKPLHL | 0
RPPRPPPKPLHLRTE | 1

target: T18, Boi2, P39969; experiment: SPOT array; conditions: median of control spots 1161

Binder | SPOT intensity
ALKQKKIPPPFKPHL | 0
DKSRPPRPPPKPLHL | 0
RPPRPPPKPLHLRTE | 3

target: T19, Pex13, P80667; experiment: SPOT array; conditions: median of control spots 1341

Binder | SPOT intensity
ALKQKKIPPPFKPHL | 0
DKSRPPRPPPKPLHL | 144
RPPRPPPKPLHLRTE | 479

target: T20, Lsb1, P53281; experiment: SPOT array; conditions: median of control spots 388

Binder | SPOT intensity
ALKQKKIPPPFKPHL | 0
DKSRPPRPPPKPLHL | 4
RPPRPPPKPLHLRTE | 266

target: Rvs167, P39743; experiment: SPOT array; conditions: median of control spots 2707
Sequence (P39743 419-482): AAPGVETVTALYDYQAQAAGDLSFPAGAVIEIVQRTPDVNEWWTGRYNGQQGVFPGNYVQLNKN

Binder | SPOT intensity
ALKQKKIPPPFKPHL | 0
DKSRPPRPPPKPLHL | 0
RPPRPPPKPLHLRTE | 12

target: T21, Sla1-3, P32790; experiment: SPOT array; conditions: median of control spots 5475

Binder | SPOT intensity
ALKQKKIPPPFKPHL | 0
DKSRPPRPPPKPLHL | 0
RPPRPPPKPLHLRTE | 43
